Laboratory results reported in US20230140200A1, “COMPOSITIONS AND METHODS FOR DETECTING CELLS UNDERGOING FERROPTOSIS USING AN ANTIBODY” (THE TRUSTEES OF COLUMBIA UNIVERSITY IN THE CITY OF NEW YORK, priority 2020, published 2023).

What was measured:
SK-LMS-1 cells = assay: Immunofluorescence in SK-LMS-1 cells; format: cell-based, human; conditions: 1 μM RSL3, 4 h
mouse TfR1 = biological target: T1, mouse TfR1 (Mus musculus, UniProt Q62351); assay: Staining of mouse glioblastoma paraffin-embedded tissue; conditions: paraffin-embedded GBM tissue
T1 construct: We evaluated 3F3-FMA staining in mouse glioblastoma (GBM) paraffin-embedded tissue samples; from tissue; host or cells: mouse glioblastoma (murine glioma model, c57/B6 mice), paraffin-embedded brain sections
Procedure: All procedures were performed according to the Columbia University Medical Center Institutional Animal Care and Use Committee. Murine glioma cell lines were created from tumor bearing mice. These tumors were generated by injection of a PDGF-IRES-Cre retrovirus into the subcortical white matter of mice with floxed PTEN and/or p53 (Sonabend et al., 2013). After mice reached end stage, the tumors were dissociated and primary cell cultures were created. These cells harbored the specific mutations of the original tumors, and could be re-injected to form gliomas in c57/B6 mice with high fidelity. Briefly, mice between the ages of 6-8 weeks received 50,000 murine glioma cells through stereotactic injection after being anesthetized with a ketamine/xylazine cocktail (87.5 mg/12.5 mg w/w). After cessation of toe-pinch reflex, the scalp was shaved and cleaned with serial use of betadine and 70% ethanol swabs. An incision was made and the skull was exposed. A burr hole was created, 2 mm anterior, 2 mm lateral and 2 mm deep to the right of the bregma. The cells were injected into the subcortical white matter over a period of 3 minutes (0.333 μL/min). Once the injection ceased, the needle was left in place for 1 minute before being slowly withdrawn. After tumor developed, brains were harvested and fixed in 4% paraformaldehyde and embedded in paraffin. 5 micron sections were made for staining.

SK-BR-3 cells = assay: Immunofluorescence in SK-BR-3 cells; format: cell-based, human; conditions: 1 μM RSL3, 4 h
mouse liver tissues = assay: Staining of normal mouse liver frozen tissue
Procedure: FIGS. 12A-12B show 3F3 FMA staining in human Huntington's disease brains and mouse tissues. In FIG. 12A, human HD and control brain tissues were fixed in 4% PFA for 24 h, perfused in 30% sucrose for 24 h, and stained with DAPI (nuclei, blue) and 3F3 FMA (red). The expression level of TfR1 is low. There was no difference between HD and control groups. In FIG. 12B, mouse liver tissues and mouse GBM tissues were fixed and stained with DAPI (nuclei, blue) and 3F3 FMA (red). 3F3 FMA was able to recognize mouse TfR1.

TfR1 = assay: Western blot of TfR1 during ferroptosis; format: cell-based, human; conditions: RSL3-induced and IKE-induced ferroptosis, HT-1080 cells
Procedure: HT-1080 cells were seeded in DMEM (Corning 10-013-CM) and 10% Hi-FBS with 1% penicillin and streptomycin (PS) with 1% MEM Non-Essential Amino Acids Solution (100×) (Thermo Fisher Scientific 11140-076) 16 h prior to use. DMSO or 1 μM of RSL3 was added and incubated for 4 h. Following treatment, the medium was aspirated from each dish and cells were washed twice with PBS. Cells were lysed with 70 μl lysis buffer (RIPA buffer from ThermoFisher, cat. 89900, 1 mM EDTA, 1 mM PMSF, 1× Halt™ protease inhibitor cocktail from ThermoFisher, cat. 78430 and 1× Halt™ phosphatase inhibitor cocktail from ThermoFisher, cat. 78426). Unlysed cells and debris were pelleted for 15 min at 16,000×g at 4° C. Samples were separated using SDS-PAGE and transferred to a polyvinylidene difluoride membrane. Transfer was performed using the iBlot2 system (Invitrogen). […]

A-673 cells = assay: Immunofluorescence in A-673 cells; format: cell-based, human; conditions: 1 μM RSL3, 4 h

T1 sequence (Q62351 whole entry): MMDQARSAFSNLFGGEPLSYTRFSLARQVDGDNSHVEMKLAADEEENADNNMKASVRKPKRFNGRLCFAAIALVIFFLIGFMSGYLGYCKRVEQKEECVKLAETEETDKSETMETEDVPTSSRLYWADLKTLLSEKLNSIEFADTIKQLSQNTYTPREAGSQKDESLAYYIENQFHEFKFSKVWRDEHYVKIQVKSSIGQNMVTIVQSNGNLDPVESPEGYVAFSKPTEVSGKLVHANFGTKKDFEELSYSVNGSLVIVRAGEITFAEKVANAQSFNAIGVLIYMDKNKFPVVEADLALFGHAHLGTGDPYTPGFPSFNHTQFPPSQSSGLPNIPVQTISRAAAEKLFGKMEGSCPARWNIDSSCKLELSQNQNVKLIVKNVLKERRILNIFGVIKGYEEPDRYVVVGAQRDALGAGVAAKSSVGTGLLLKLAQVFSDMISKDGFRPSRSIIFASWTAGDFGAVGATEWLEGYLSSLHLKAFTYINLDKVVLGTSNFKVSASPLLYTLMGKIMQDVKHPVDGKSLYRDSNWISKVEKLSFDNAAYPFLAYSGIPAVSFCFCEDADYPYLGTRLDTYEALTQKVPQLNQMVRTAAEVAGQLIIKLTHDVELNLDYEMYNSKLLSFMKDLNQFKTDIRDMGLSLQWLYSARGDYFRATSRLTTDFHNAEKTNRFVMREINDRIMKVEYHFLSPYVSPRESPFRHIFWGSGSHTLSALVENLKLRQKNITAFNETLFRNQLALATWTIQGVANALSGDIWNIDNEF

B1: 3F3-FMA: Murine monoclonal IgG1 raised against ferroptotic membrane fractions; antigen is transferrin receptor protein 1 (TfR1) (antibody, V domains shown)
VH: EVLLQQSGTELVRPGALVKLSCKASGFNIQDLYIHWVKQRPEQGLEWIGWIDPETDNTIYDPKFQGKASITADTSSNTAYLQLSSLTSEDTAMYYCSTGLLQWYFDVWGAGTAVTVSS
VL: DIVMTQSPSSLAMSIGQKVTMRCKSSQSLLNSYNQKNCLAWYQQKPGQSPKLLLYFVSTRESGVPDRFIGSGSGTDFTLTISSVQAEDLADYFCQQHYSTPLTFGAGTKLELK
3F3-FMA staining upon ferroptosis induction (SK-LMS-1 cells): concentrated at the cell boundaries and became brighter | recognition of TfR1 in tumor samples (mouse TfR1): able to recognize mouse TfR1 protein | 3F3-FMA staining upon ferroptosis induction (SK-BR-3 cells): concentrated at the cell boundaries and became brighter | staining signal in normal liver tissue (mouse liver tissues): robust signal | intensity of western blot bands during ferroptosis (TfR1): increased intensity of the bands | 3F3-FMA staining upon ferroptosis induction (A-673 cells): concentrated at the cell boundaries and became brighter
